Assay results as given in PMC9637641, “Regulation of factor V by the anticoagulant protease activated protein C: Influence of the B-domain and TFPIα” (The Journal of Biological Chemistry, 2022).

Assays:
[1] = target: T1, OG488-TFPIα-BR (fluorescently labeled with OG488 (Oregon Green 488 maleimide)); test: cell-based or functional assay
[2] = target: T1, OG488-TFPIα-BR; test: fluorescence polarisation; steady-state fluorescence anisotropy; FV species or APCi titrated (0–100 nM) into 25 nM OG488-TFPIα-BR and 50 μM PCPS vesicles in HBS/Ca2+/PEG, pH 7.4 (20 mM Hepes, 150 mM NaCl, 5 mM CaCl2, 0.1% PEG-8000), 25 °C; fit to a model for tight binding; details: both partners purified

T1 sequence (P10646 268-293): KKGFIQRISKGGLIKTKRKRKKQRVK

Reduced fold change of inactivation by APC, +TFPIα-BR (kobs no BR divided by kobs +BR; % peak thrombin in TGA; 20 nM FV species, 250 nM BR fragment, 1 nM APC) [1]: 14.2 fold
Kd [2]: 1.56 nM
stoichiometry N [2]: 1.18 mol/mol
B1: FV-short (natural protein)
chain: AQLRQFYVAAQGISWSYRPEPTNSSLNLSVTSFKKIVYREYEPYFKKEKPQSTISGLLGPTLYAEVGDIIKVHFKNKADKPLSIHPQGIRYSKLSEGASYLDHTFPAEKMDDAVAPGREYTYEWSISEDSGPTHDDPPCLTHIYYSHENLIEDFNSGLIGPLLICKKGTLTEGGTQKTFDKQIVLLFAVFDESKSWSQSSSLMYTVNGYVNGTMPDITVCAHDHISWHLLGMSSGPELFSIHFNGQVLEQNHHKVSAITLVSATSTTANMTVGPEGKWIISSLTPKHLQAGMQAYIDIKNCPKKTRNLKKITREQRRHMKRWEYFIAAEEVIWDYAPVIPANMDKKYRSQHLDNFSNQIGKHYKKVMYTQYEDESFTKHTVNPNMKEDGILGPIIRAQVRDTLKIVFKNMASRPYSIYPHGVTFSPYEDEVNSSFTSGRNNTMIRAVQPGETYTYKWNILEFDEPTENDAQCLTRPYYSDVDIMRDIASGLIGLLLICKSRSLDRRGIQRAADIEQQAVFAVFDENKSWYLEDNINKFCENPDEVKRDDPKFYESNIMSTINGYVPESITTLGFCFDDTVQWHFCSVGTQNEILTIHFTGHSFIYGKRHEDTLTLFPMRGESVTVTMDNVGTWMLTSMNSSPRSKKLRLKFRDVKCIPDDDEDSYEIFEPPESTVMATRKMHDRLEPEDEESDADYDYQNRLAAALGIRSFRNSSLNQEEEEFNLTALALENGTEFVSSNTDIIVGSNYSSPSNIDLGQMPSPSSPTLNDTFLSKEFNPLVIVGLSKDGTDYIEIIPKEEVQSSEDDYAEIDYVPYDDPYKTDVRTNINSSRDPDNIAAWYLRSNNGNRRNYYIAAEEISWDYSEFVQRETDIEDSDDIPEDTTYKKVVFRKYLDSTFTKRDPRGEYEEHLGILGPIIRAEVDDVIQVRFKNLASRPYSLHAHGLSYEKSSEGKTYEDDSPEWFKEDNAVQPNSSYTYVWHATERSGPESPGSACRAWAYYSAVNPEKDIHSGLIGPLLICQKGILHKDSNMPMDMREFVLLFMTFDEKKSWYYEKKSRSSWRLTSSEMKKSHEFHAINGMIYSLPGLKMYEQEWVRLHLLNIGGSQDIHVVHFHGQTLLENGNKQHQLGVWPLLPGSFKTLEMKASKPGWWLLNTEVGENQRAGMQTPFLIMDRDCRMPMGLSTGIISDSQIKASEFLGYWEPRLARLNNGGSYNAWSVEKLAAEFASKPWIQVDMQKEVIITGIQTQGAKHYLKSCYTTEFYVAYSSNQINWQIFKGNSTRNVMYFNGNSDASTIKENQFDPPIVARYIRISPTRAYNRPTLRLELQGCEVNGCSTPLGMENGKIENKQITASSFKKSWWGDYWEPFRARLNAQGRVNAWQAKANNNKQWLEIDLLKIKKITAIITQGCKSLSSEMYVKSYTIHYSEQGVEWKPYRLKSSMVDKIFEGNTNTKGHVKNFFNPPIISRFIRVIPKTWNQSIALRLELFGCDIY
